Measurements reported in patent US20090036368A1, “Therapeutic Combination” (HAMLET PHARMA AB, priority 2005, published 2009).
Changes are numbered by the printed parent chain. Names and notes keep the numbering of the source.

B1: HAMLET (protein, UniProt P00709 20-142, looked up)
Alpha-lactalbumin: KQFTKCELSQLLKDIDGYGGIALPELICTMFHTSGYDTQAIVENNESTEYGLFQISNKLWCKSSQVPQSRNICDISCDKFLDDDITDDIMCAKKILDIKGIDYWLAHKALCTEKLEQWLCEKL
modifications: complex with oleic acid
B2: D87A: bovine α-lactalbumin mutant, aspartic acid at position 87 replaced by alanine (protein, UniProt P00711 20-142, looked up, variant D87A)
Alpha-lactalbumin: EQLTKCEVFRELKDLKGYGGVSLPEWVCTTFHTSGYDTQAIVQNNDSTEYGLFQINNKIWCKDDQNPHSSNICNISCDKFLDDDLTADIMCVKKILDKVGINYWLAHKALCSEKLDQWLCEKL
B3: D87N: bovine α-lactalbumin mutant, aspartic acid at position 87 replaced by asparagine (protein, UniProt P00711 20-142, looked up, variant D87N)
Alpha-lactalbumin: B2 Alpha-lactalbumin with A87N

Legend:
Jurkat cells [1] = test: subG1 population / DNA fragmentation by flow cytometry after PI staining; assay type: cell-based; conditions: for DNA fragmentation (sub G0/G1), substance alone: TSA 100 ng/ml or SAHA 2.5 μM
Procedure: Cell Cycle Analysis by cytometry—Cells were harvested, washed with PBS and then fixed in suspension in 75% cold ethanol at 4° C. for 2 hours at least. The samples were then centrifuged, washed with PBS, and treated with 0.25% triton X-100 for 10 minutes at room temperature. The cells were washed again, resuspended in 2.5 μg/ml of PI and 250 μg/ml Rnase A in PBS, and incubated at 4° C. overnight prior to measurement. Cellular fluorescence was measured using the Facscalibur flow cytometry (Becton Dickinson, San Jose, Calif.). The simple-cell populations were determinated on the basis of their fluorescence-intensity values FL2-A and FL2-W.
The effects of HAMLET on DNA fragmentation were compared between untreated cells and those pre-treated with TSA to increase acetylation. Sub G0/G1 DNA fragmentation was quantified by flow cytometry using the methodology as described in Example 1.
(§1) Cells in medium were used as controls.

[2] = tested on: HeLa cells expressing GFP-tagged Histone H4; test: acetyl histone H4 and nuclear morphology by confocal microscopy; assay type: cell-based; conditions: TSA 100 ng/ml; vs control cells
Procedure: Acetyl histone H4 by confocal microscopy—Hela Cells were grown in Lab-Tek Chamber slides. Cells were washed twice in PBS, and then fixed 10 minutes in PBS formaldehyde 4%. The samples were then centrifuged, washed with PBS, and treated with 0.1% triton X-100 for 2 minutes at room temperature. After washes, cells were incubated for at least 30 min in swine serum 1% (DAKO, Solna, Sweden) in PBS. Then cells were incubated for 3 hours at room temperature in the presence of rabbit polyclonal antibody to human acetyl Histone H4 (Upstate), diluted 1/500 containing 1% BSA. Cells were then washed and incubated with an Alexa633-conjugated goat anti-rabbit antibody (Invitrogen) diluted 1/200 in PBS containing 1% BSA for 2 h. The cells were washed 3×5 min. in PBS prior to evaluation in an LSM 510 META confocal microscope (Carl Zeiss, Germany) with a 63× objective. The frequency of each chromatin patterns is shown in fold of control cells staining after counting a minimum of 30 cells in each experiment.
The effect of HAMLET and TSA on the acetylation of Histone H4 was further examined by confocal microscopy of adherent HeLa cells expressing GFP-tagged Histone H4. […] The acetylation level of histone H4 in the control cells was very weak (FIG. 9A).

[3] = viability by trypan blue exclusion (Vi-Cell XR); conditions: human, Jurkat cells
Procedure: (§2) Jurkat cells were first pretreated with or without TSA 100 ng/ml during 3 or 18H and then treated by HAMLET during 3H. Viability was assessed by trypan blue exclusion using the Vi-Cell XR apparatus.
(§3) To examine if HDAC inhibitors might influence the effects of HAMLET on the viability of tumour cells, Jurkat cells were pretreated with HDAC inhibitors TSA 3 hours or 18 h and then exposed to HAMLET (FIG. 5). The cellular response to the combined treatment was compared to the response to TSA alone (3 h or 18 h) and to HAMLET (3 h). Cells in medium were used as controls. The cellular response was quantified by flow cytometry and the subG1 population was used as a measure of chromatin fragmentation and cell death (FIGS. 5 and 6A). In parallel, cell viability was assessed by ATP levels (FIG. 6B) and trypan blue exclusion (FIG. 6C).

A459 cells = test: subG1 DNA fragmentation by flow cytometry in A459 cells; assay type: cell-based; conditions: TSA 100 ng/ml overnight, then HAMLET 30 μM one hour; data not shown
Procedure: In addition, non confluent A459 cells were treated with or without TSA 100 ng/ml overnight. Then HAMLET was added for one hour at 30 μM. As before, DNA fragmentation was followed both by flow cytometry. Following PI staining (cf. Materials and methods), subG1 populations were quantified and presented as percent of the total population.

[4] = tested on: acetyl histone H4 in Jurkat cells; test: acetyl histone H4 by flow cytometry; assay type: cell-based; conditions: for histone acetylation (Example 5): TSA 3 hours or 18 h, HAMLET 3 h, total population
Procedure: Acetyl histone H4 and Cell Cycle Analysis by cytometry—Cells were harvested, washed with PBS and then fixed in suspension in 75% cold ethanol at 4° C. for 2 hours at least. The samples were then centrifuged, washed with PBS, and treated with 0.25% triton X-100 for 10 minutes at room temperature. After addition of 3 ml of PBS and centrifugation, the cells were incubated for at least 30 min in swine serum 1% (DAKO, Solna, Sweden) in PBS. After addition of 3 ml of PBS and centrifugation, the cells were incubated for 3 hours at room temperature in the presence of rabbit polyclonal anti-body to human acetyl Histone H4 (Upstate), diluted 1/500 containing 1% BSA. Cells were then washed and incubated with a FITC-conjugated swine anti-rabbit antibody (DAKO, Solna, Sweden) diluted 1/20 in PBS containing 1% BSA for 2 h. The cells were washed again, resuspended in 2.5 μg/ml of PI and 250 μg/ml Rnase A in PBS, and incubated at 4° C. overnight prior to measurement. The control was prepared identically as described above, except the presence of the histone antibody. Cellular fluorescence was measured using the Facscalibur flow cytometry (Becton Dickinson, San Jose, Calif.). The simple-cell populations were determined on the basis of their fluorescence-intensity values FL2-A and FL2-W. Then red and green emissions from each cell were separated and quantified using the standard optics of the cytometer.
The level of chromatin acetylation in Jurkat cells was quantified by flow cytometry, using specific antibodies to acetylated histone H4 (FIG. 1). To increase acetylation, the cells were treated with the HDAC inhibitor TSA (FIG. 1C, FIG. 1E line 3).
The inhibition of HDAC causes an accumulation of acetylated histones. The level of acetyl histone H4 in Jurkat cells was quantified by flow cytometry after staining with specific antibodies. The cells were counterstained with propidium iodide to visualize the change in chromatin levels. Results are presented as density plot diagrams representing the DNA content on the Y-axis between four populations of cells (Sub1, G1, S, and G2), and the degree of acetylation of Histone H4 on the X-axis.

Jurkat cells [5] = test: viability by trypan blue exclusion (Vi-Cell XR); conditions: HAMLET 3 h, in comparison with control
Procedure: as §2, §3

[6] = tested on: tailless histones and DNA; test: nucleosome assembly from tailless histones and DNA; assay type: biochemical, Drosophila melanogaster; conditions: radiolabelled 146 bp DNA fragments, gel
Procedure: FIG. 4. Effects of HAMLET on a mixture of tailless histones and DNA. HAMLET was added to a mixture of radiolabelled 146 bp DNA fragments and tailless histones. In the absence of HAMLET, no nucleosomes are formed (lane 1). […] Nucleosome assembly on the 146 bp fragment results in one single nucleosome species, designated N. At higher concentrations of HAMLET, more nucleosomes were formed and HAMLET associated with them to form a second band in the gel. HAMLET also dissolved the unspecific histone-DNA aggregated seen in the wells.
Histones—Native, folded histones were obtained from duck erythrocyte nuclei. Native or tailless Drosophila melanogaster histones were expressed in E. coli, purified and assembled into octamers. The fold and functional integrity of the histones were confirmed by nucleosome assembly on DNA.
Chromatin assembly—To generate nucleosomes, histone octamers (recombinant or purified from cells) were assembled on linear DNA according to the “salt jump” method (Stein, 1979). ^32P-labeled 256 bp fragments and carrier DNA (supercoiled plasmid DNA, final DNA concentration 200 μg/ml) were mixed with histones (histone:DNA weight ratio 0.4-0.6) in 2 M NaCl, 10 mM Tris-HCl (pH 7.5). The mixture was incubated for 10 min at 37° C., diluted to 0.5 M NaCl, incubated at the same temperature for 30 min, and dialyzed at 4° C. against 10 mM Tris-HCl (pH 7.5) and 1 mM EDTA for 2 h. […]

Jurkat cells [7] = test: cell viability by ATP levels; assay type: cell-based; conditions: 3 h exposure, vs control cells
Description: ATP monitoring reagent (AMR) was purchased from Cambrex (Wokingham, U.K.) in the form of a ViaLight™ HS kit and was reconstituted according to the manufacturers guidelines.
as §1

[8] = biological activity of α-lactalbumin mutants in apo-conformation; conditions: mutant proteins stable in apo-conformation at physiologic temperatures, without cofactor
[9] = bovine α-lactalbumin mutants, Permyakov et al. 2001; cited from earlier work

Molecule	DNA fragmentation (sub G0/G1), substance alone (Jurkat cells [1]; HAMLET 1 hour)	acetylation of Histone H4 [2]	intensity of the GFP (histone H4) staining [2]	size of the nuclei [2]	histone acetylation (Example 5) [4]	biological activity [8]	calcium binding [9]	also measured
O=C(CCCCCCC(=O)Nc1ccccc1)NO [SAHA, suberoylanilide hydroxamic acid]	did not trigger DNA fragmentation							
CC(/C=C/C(=O)NO)=C\[C@@H](C)C(=O)c1ccc(N(C)C)cc1 [TSA, Trichostatin A]	did not stimulate DNA fragmentation	increase in the staining of the acetylation of histone H4	slight increase	slight increase in the size of the nuclei	time dependent increase in histone acetylation			cytotoxicity at 18 h, 100 ng/ml [3]: 24.9%; cell death (subG1) (A459 cells): significantly increased cell death; subG1 population (Jurkat cells [1]; TSA alone, 18 h): 26.13%; HAMLET-induced DNA fragmentation after HDAC inhibitor pre-treatment (Jurkat cells [1]; pre-treated with TSA 100 ng/ml or SAHA 2.5 μM for 2 hours, HAMLET 1 hour): enhanced HAMLET-induced DNA fragmentation; time of maximal effect on acetylation ([4]; TSA treatment): two hours; acetylation of histone H4, increase vs control ([4]; increased concentration of TSA without HAMLET, intact cells (subG1 removed)): 2 fold
B1	induce DNA fragmentation	increase in the acetylation of Histone H4	increase of the intensity of the GFP staining	marked decrease in the size of the nuclei	did not change the degree of acetylation			loss of viability by trypan blue exclusion (Jurkat cells [5]): 19.7%; effect on mixture of tailless histones and 146 bp DNA [6]: assembly of nucleosomes; subG1 population (Jurkat cells [1]; HAMLET alone, 3 h): 14.58%; decrease in ATP levels (Jurkat cells [7]; HAMLET 0.1 mg/ml): 9.2%; decrease in ATP levels (Jurkat cells [7]; HAMLET 0.2 mg/ml): 41.17%; decrease in ATP levels (Jurkat cells [7]; HAMLET 0.3 mg/ml): 85.71%; histone H4 acetylation (Example 1) ([4]; low concentrations of HAMLET 1H, TSA 100 ng/ml 2H, vs medium control): decrease in histone H4 acetylation
B2						biologically inactive	totally abolish calcium binding	
B3						biologically inactive	still bound calcium but with lower affinity	
